The assay deals with Prunus persica WEEP protein (PpeWEEP), 6xHis-MBP-PpeWEEP-StrepTagII fusion protein (Prunus persica (peach)). The experiment in a line: SEC. For orientation: In gel filtration, larger molecules generally elute earlier.

Substance “Prunus persica WEEP protein (PpeWEEP), 6xHis-MBP-PpeWEEP-StrepTagII fusion protein (natural protein)” registered a stoichiometry N of 8.7 mer.

The stoichiometry N is a count of units in the complex or per binding partner.
